Assay results from PMC4477859.

Target: wild-type CENP-A nucleosome arrays with Myc-H4 (UniProt P49450)
Test: pull-down

Sequence of UniProt P49450 (P49450 whole entry, looked up): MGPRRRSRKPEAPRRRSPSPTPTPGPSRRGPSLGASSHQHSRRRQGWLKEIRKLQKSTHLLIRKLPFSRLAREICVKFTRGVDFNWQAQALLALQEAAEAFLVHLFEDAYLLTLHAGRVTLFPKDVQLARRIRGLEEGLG

CENP-C to CENP-A nucleosome ratio, low against high saturation arrays: 2 fold
Substance: CENP-C (natural protein)
